# Measurements as given in doi:10.1101/2025.02.28.640611 (bioRxiv, 2025).
# B1: S. mutans ClpX with a C-terminal hexahistidine tag (enzyme)
# chain: not shown
# Molecular target: the molecule itself
# Assay: cross-linking
protein,measurement,value
B1,stoichiometry N,6
